Residue numbers refer to the chain shown, from its start. Numbers in names are those of the source.

The Kd is a measure of binding affinity in units of concentration.

Assay [1] in a line: Probe fluorescence ratio response to arachidonate:BSA complex, relative to ADIFAB2 (ΔR/ΔRAD2). The format is binding. The settings on record: fluorescence response (R-Ro) relative to ADIFAB2, arachidonate. The method, boiled down: (§1)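 Fatty acids presented as BSA complexes (6 μM BSA in HEPES) set to ΔR ≈0.4 with ADIFAB2, i.e. unbound FFA 100-1000 nM. Background-subtracted ratio from excitation 375 nm, emission 550/457 nm; ΔR versus fatty-acid-free BSA, divided by the ADIFAB2 ΔR.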

The nature of assay [2]: Probe fluorescence ratio response to linolenate:BSA complex, relative to ADIFAB2 (ΔR/ΔRAD2). The format is binding. The settings on record: fluorescence response (R-Ro) relative to ADIFAB2, linolenate. The method, boiled down: as §1
Assay [3] is described as follows: Probe fluorescence ratio response to linoleate:BSA complex, relative to ADIFAB2 (ΔR/ΔRAD2). The settings on record: fluorescence response (R-Ro) relative to ADIFAB2, linoleate. The format is binding. The method, boiled down:
as §1

Assay [4] in a line: Probe fluorescence ratio response to oleate:BSA complex, relative to ADIFAB2 (ΔR/ΔRAD2). The format is binding. The settings on record: fluorescence response (R-Ro) relative to ADIFAB2, oleate. Put shortly:
as §1

Assay [5] can be described thus: Probe fluorescence ratio response to palmitate:BSA complex, relative to ADIFAB2 (ΔR/ΔRAD2). Format: binding. Particulars: fluorescence response (R-Ro) relative to ADIFAB2, palmitate. The method, boiled down: as §1
Assay [6] is described as follows: Probe fluorescence ratio response to palmitoleate:BSA complex, relative to ADIFAB2 (ΔR/ΔRAD2). Format: binding.
Assay [7] in a line: Probe fluorescence ratio response to stearate:BSA complex, relative to ADIFAB2 (ΔR/ΔRAD2). Format: binding.
Assay [8] can be described thus: Mutant probe screening: baseline fluorescence ratio Ro and fatty acid response phenotype. Particulars: 7 FFA: AA, LNA, LA, OA, PA, POA, SA. Format: binding. Here is the method:
The intensity ratio (“R” value) for a given probe is determined. The ratio is calculated using the following formula: R=Fλ1/Fλ2 wherein, Fλ1, is the measured fluorescence intensities (intensity of sample with probe present minus intensity of sample without probe present) at wavelength 1 and Fλ2 is the measured fluorescence intensities (intensity of sample with probe present minus intensity of sample without probe present) at wavelength 2. Then, for a given probe, ΔR, the difference in R value between the measurement in the presence of the analyte and in the absence of the analyte, is calculated as follows: ΔR=R+analyte−R0 The ΔR value for a given probe is then compared to a reference probe, for example, ADIFAB or ADIFAB2, by ΔR/ΔRreference. […] Measurements of fluorescence intensities are obtained using standard techniques.
Plates were prepared and read in two stages. […] The background fluorescence was then measured at the same wavelengths as used for ADIFAB2 using a Fluorolog-3 spectrofluorometer with an external Micromax 384 fluorescence plate reader (Jobin Yvon). In the second stage, 30 μL aliquots of the mutant probes were added to multiple wells of the plate, one for each fatty acid and one with fatty acid free BSA only, and the fluorescence intensity at each wavelength was again measured on the plate reader. […]

Assay [9] in a line: Binding isotherm: probe titrated with UCB, Kd. The settings on record: non-linear fit to binding isotherm; 1 μM probe titrated with UCB (FIG. 3); read-out: Kd. The procedure:
(§2) Larger preparations of select probes were prepared for quantitative determination of binding affinities. Binding isothermns were performed by measuring the fluorescence intensity for 1 μM of a given probe as the probe was titrated with known quantities of UCB. […] Table 3 lists the Kd values and mutations for some example probes. […] This property was confirmed by titration of a mixture of 0.5 μM UCB and 1 μM L2P14F7 with sodium oleate. […] Oleic acid is the most abundant FFA in serum, and measurements of normal serum samples indicate that typical unbound concentrations of oleic acid are less than 1 nM. By using non-responsive probes from FFA screening to conduct a secondary screening with other unbound analytes, a UCB-sensitive probe that has a negligible response to the major FFA in blood has been generated from a rI-FABP-L72A mutant.

A short description of assay [10]: Titration of UCB and probe mixture with sodium oleate. Format: binding. Particulars: mixture of 0.5 μM UCB and 1 μM probe; after 1 μM total oleate added (FIG. 4). The procedure: as §2
Assay [11] in a line: Probe response to plasma samples from healthy adult donors, with and without 5 μM UCB. The procedure:
The response of L2P14F7 to plasma samples from healthy adult donors, for which the UCBu concentration is expected to be about 1 nM or less, was measured (FIG. 5). Samples were diluted to 1% by volume in pH 7.4 HEPES buffer.

[12] abbreviates: fluorescence response (R-Ro) relative to ADIFAB2.
Where [13] appears, read: fluorescence response (R-Ro) relative to ADIFAB2, listed as L2P12G9.
[14] abbreviates: fluorescence response (R-Ro) relative to ADIFAB2, listed as L2P21C1.

B1: L2P12 G9: acrylodan-labeled rI-FABP-L72A mutein: M18 L, G31 WT, F55 WT, A73 V (protein, UniProt P02693 2-132, looked up, variant M18L L72A A73V)
Fatty acid-binding protein, …: AFDGTWKVDRNENYEKFLEKMGINVVKRKLGAHDNLKLTITQEGNKFTVKESSNFRNIDVVFELGVDFAYSAVDGTELTGTWTMEGNKLVGKFKRVDNGKELIAVREISGNELIQTYTYEGVEAKRIFKKE
modifications: acrylodan label
notes: acrylodan-labeled rI-FABP-L72A mutein: M18 L, G31 WT, F55 WT, A73 V
As for B1, the entries for the “ΔR/ΔRAD2 AA” value in assay [1] and in assay [1] (listed as L2P12G9) were 0.54 and 0.5, respectively. Further, the “ΔR/ΔRAD2 LNA” value in assay [2] amounted to 0.01; in assay [2] (listed as L2P12G9) it was 0.0. The “ΔR/ΔRAD2 LA” value in assay [3] is given as −0.07; in assay [3] (listed as L2P12G9) it was −0.1. Also, the “ΔR/ΔRAD2 OA” value in [4] is recorded as 0.07; in assay [4] (listed as L2P12G9), 0.0. In addition, the “ΔR/ΔRAD2 PA” value in assay [5] is recorded as 0.03; in assay [5] (listed as L2P12G9) it was 0.0. Besides, the “ΔR/ΔRAD2 POA” value in assay [6] (setting [12]) is reported as −0.01; in assay [6] (setting [13]), 0.0. Besides, the “ΔR/ΔRAD2 SA” value in assay [7] (setting [12]) is 0.48; in assay [7] (setting [13]), 0.4. For the same molecule, the “phenotype (fatty acid response) relative to ADIFAB2” value in assay [8] was “response only for AA and SA”.

B2: L2P21 C1: acrylodan-labeled rI-FABP-L72A mutein: M18 I, G31 Y, F55 WT, A73 V (protein, UniProt P02693 2-132, looked up, variant M18I G31Y L72A A73V)
Fatty acid-binding protein, …: B1 Fatty acid-binding protein, … with L18I, G31Y
modifications: acrylodan label
notes: acrylodan-labeled rI-FABP-L72A mutein: M18 I, G31 Y, F55 WT, A73 V
Take B2: the figures for the “ΔR/ΔRAD2 AA” value in [1] and in assay [1] (listed as L2P21C1) were 3.27 and 2.8, respectively. The “ΔR/ΔRAD2 LNA” value in assay [2] was determined as 3.73; in assay [2] (listed as L2P21C1), 3.1. The “ΔR/ΔRAD2 LA” value came to 4.04 in [3] and 3.4 in [3] (listed as L2P21C1). The “ΔR/ΔRAD2 OA” value amounted to 3.20 in assay [4] and 2.7 in assay [4] (listed as L2P21C1). Besides, the “ΔR/ΔRAD2 PA” value in assay [5] is listed as 2.54; in assay [5] (listed as L2P21C1), 2.0. For the same molecule, the figures for the “ΔR/ΔRAD2 POA” value in assay [6] (setting [12]) and in assay [6] (setting [14]) were 3.52 and 2.9, respectively. Besides, the “ΔR/ΔRAD2 SA” value in assay [7] (setting [12]) is reported as 2.02; in assay [7] (setting [14]), 1.6. In addition, in assay [8], the “phenotype (fatty acid response) relative to ADIFAB2” value is listed as “greater response for all 7 FFA”.

B3: L2P14F7: UCB probe from rI-FABP-L72A; mutations 18G 31 M 72A (protein, UniProt P02693 2-132, looked up, variant M18G G31M L72A)
Fatty acid-binding protein, …: B1 Fatty acid-binding protein, … with L18G, G31M, V73A
modifications: fluorescent label
notes: UCB probe from rI-FABP-L72A; mutations 18G 31 M 72A
Consider B3, for which the Kd in assay [9] came out at 150 nM. Further, the “response on titration with sodium oleate” value in assay [10] is reported as “no change in response”. Also, the “response to plasma samples” value in [11] (healthy adult donors, samples diluted to 1% by volume in pH 7.4 HEPES buffer) is “Little to no response”. In addition, in [11] (samples A and B spiked with 5 μM UCB), the “probe fluorescence after spiking plasma samples with UCB” value is “substantial decrease in the fluorescence”.
